Results reported in patent US20230303994.
Numbering of substitutions follows the chain as printed.

B1: trypsin variant SEQ ID NO: 62 (protein)
chain: IVGGYTCAANSIPYQVSLNSGSHRCGGSLINSQWVVSAAHCYKSRIQVRLGEHNIDVLEGNEQFINAAKIITHPNFNGNTLDNDIMLIKLSSPATLNSRVATVSLPRSCAAAGTECLISGWGNTKSSGSSVPSLLQCLKAPVLSDSSCKSSYPGQITGNMICVGFLEGGKDACQGDSGGPVVCNGQLQGIVSSGYGCAQKNKPGVYTKVCNYVNWIQQTIAAN
B2: trypsin variant SEQ ID NO: 69 (protein)
chain: B1 chain with V131Y, S193F
B3: trypsin variant SEQ ID NO: 112 (protein)
chain: B1 chain with S44P, D56H, G78P, R99H, R107T, K125S, V131Y, K170A, A172S
B4: trypsin variant SEQ ID NO: 13 (protein)
chain: B1 chain with R99E, V131Y
B5: trypsin variant SEQ ID NO: 68 (protein)
chain: B1 chain with V131D
B6: trypsin variant SEQ ID NO: 8 (protein)
chain: B1 chain with R99G, V131Y
B7: trypsin variant SEQ ID NO: 64 (protein)
chain: B1 chain with V131W
B8: trypsin variant SEQ ID NO: 71 (protein)
chain: B1 chain with V131Y, S193T
B9: trypsin variant SEQ ID NO: 63 (protein)
chain: B1 chain with V131I
B10: trypsin variant SEQ ID NO: 72 (protein)
chain: B1 chain with G78S, V131Y
B11: trypsin variant SEQ ID NO: 65 (protein)
chain: B1 chain with V131G
B12: trypsin variant SEQ ID NO: 12 (protein)
chain: B1 chain with R99D, V131Y
B13: trypsin variant SEQ ID NO: 70 (protein)
chain: B1 chain with V131Y, S193Y
B14: trypsin variant SEQ ID NO: 66 (protein)
chain: B1 chain with V131S
B15: trypsin variant SEQ ID NO: 114 (protein)
chain: B1 chain with S44P, D56H, R99A, R107T, K125A, V131Y, K170A, A172S
B16: trypsin variant SEQ ID NO: 120 (protein)
chain: B1 chain with K125P, V131Y
B17: trypsin variant SEQ ID NO: 76 (protein)
chain: B1 chain with G78E, V131Y
B18: trypsin variant SEQ ID NO: 75 (protein)
chain: B1 chain with G78Y, V131Y
B19: trypsin variant SEQ ID NO: 67 (protein)
chain: B1 chain with V131Q

Biological target: pre-pro-human insulin

Row | Protein | Activity PPI cleavage | Selectivity
1 | B1 | yes | >90%
2 | B2 | yes | >70%
3 | B3 | yes | >90%
4 | B4 | yes | >90%
5 | B5 | yes | >70%
6 | B6 | yes | >90%
7 | B7 | yes | >90%
8 | B8 | yes | >62.1%
9 | B9 | yes | >90%
10 | B10 | yes | >90%
11 | B11 | yes | >80%
12 | B12 | yes | >90%
13 | B13 | yes | >70%
14 | B14 | yes | >90%
15 | B15 | yes | >90%
16 | B16 | yes | 1.4%
17 | B17 | yes | >90%
18 | B18 | yes | >90%
19 | B19 | yes | >90%
